Reference: publication PMC5536003

Biological target: CXC chemokine receptor (CXCR)3, CXCR3A (UniProt P49682)
UniProt P49682, sequence (P49682 whole entry): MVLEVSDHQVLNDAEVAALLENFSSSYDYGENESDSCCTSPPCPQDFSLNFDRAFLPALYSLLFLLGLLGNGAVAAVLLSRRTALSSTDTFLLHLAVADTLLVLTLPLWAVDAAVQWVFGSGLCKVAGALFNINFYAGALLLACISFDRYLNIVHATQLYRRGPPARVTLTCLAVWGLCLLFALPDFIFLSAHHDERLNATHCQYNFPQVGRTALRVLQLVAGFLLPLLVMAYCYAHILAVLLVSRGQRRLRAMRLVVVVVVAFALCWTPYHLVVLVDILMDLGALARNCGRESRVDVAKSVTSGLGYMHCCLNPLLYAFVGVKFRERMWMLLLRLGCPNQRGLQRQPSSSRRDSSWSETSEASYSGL

An increase of [Ca2+]i in Fura-2-loaded CHO/CXCR3A cells stimulated with 3 ng/mL CXCL10 (no GAG) of 107 nM was found for “CXC chemokine ligand (CXCL)10 (from UniProt P02778 22-98)” in this work.

B1: CXC chemokine ligand (CXCL)11 (ligand)
chain: FPMFKRGRCLCIGPGVKAVKVADIEKASIMYPSNNCDKIEVIITLKENKGQRCLNPKSKQARLIIKKVERKNF
An increase of [Ca2+]i in Fura-2-loaded CHO/CXCR3A cells stimulated with 3 ng/mL CXCL11 (no GAG) of 304 nM was found for B1 in this work.

B2: CXC chemokine ligand (CXCL)9 (ligand)
chain: TPVVRKGRCSCISTNQGTIHLQSLKDLKQFAPSPSCEKIEIIATLKNGVQTCLNPDSADVKELIKKWEKQVSQKKKQKNGKKHQKKKVLKVRKSQRSRQKKTT
An increase of [Ca2+]i in Fura-2-loaded CHO/CXCR3A cells stimulated with 1 µg/mL CXCL9 (no GAG) of 598 nM was found for B2 in this work.
